To fix the notation:
T1: human NPY2 receptor (human, UniProt P49146 1-381)
T1 construct: whole, on cells; also called hNPY2-R; hNPY2R
T1 sequence (looked up): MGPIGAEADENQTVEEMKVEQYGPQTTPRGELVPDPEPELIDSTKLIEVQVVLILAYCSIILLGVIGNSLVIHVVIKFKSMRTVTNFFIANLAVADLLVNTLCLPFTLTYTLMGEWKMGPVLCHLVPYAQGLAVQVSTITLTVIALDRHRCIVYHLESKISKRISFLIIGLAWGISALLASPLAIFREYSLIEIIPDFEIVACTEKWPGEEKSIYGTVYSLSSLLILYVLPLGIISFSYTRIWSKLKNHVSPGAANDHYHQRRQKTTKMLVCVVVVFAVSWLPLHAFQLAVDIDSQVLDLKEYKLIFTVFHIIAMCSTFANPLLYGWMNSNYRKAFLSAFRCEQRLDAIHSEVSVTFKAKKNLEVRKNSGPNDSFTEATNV

B1: Compound 9 (peptide)
peptide: Isovaleryl-APEK([Ahx-γGlu-C18 diacid])PEEQATPEELQRYYVSLRHYYNWLTRQRY-NH2
SMILES: CC(C)CC(=O)N[C@@H](C)C(=O)N1CCC[C@H]1C(=O)N[C@@H](CCC(=O)O)C(=O)N[C@@H](CCCCNC(=O)CCCCCNC(=O)CC[C@H](NC(=O)CCCCCCCCCCCCCCCCC(=O)O)C(=O)O)C(=O)N1CCC[C@H]1C(=O)N[C@@H](CCC(=O)O)C(=O)N[C@@H](CCC(=O)O)C(=O)N[C@@H](CCC(N)=O)C(=O)N[C@@H](C)C(=O)N[C@H](C(=O)N1CCC[C@H]1C(=O)N[C@@H](CCC(=O)O)C(=O)N[C@@H](CCC(=O)O)C(=O)N[C@@H](CC(C)C)C(=O)N[C@@H](CCC(N)=O)C(=O)N[C@@H](CCCNC(=N)N)C(=O)N[C@@H](Cc1ccc(O)cc1)C(=O)N[C@@H](Cc1ccc(O)cc1)C(=O)N[C@H](C(=O)N[C@@H](CO)C(=O)N[C@@H](CC(C)C)C(=O)N[C@@H](CCCNC(=N)N)C(=O)N[C@@H](Cc1c[nH]cn1)C(=O)N[C@@H](Cc1ccc(O)cc1)C(=O)N[C@@H](Cc1ccc(O)cc1)C(=O)N[C@@H](CC(N)=O)C(=O)N[C@@H](Cc1c[nH]c2ccccc12)C(=O)N[C@@H](CC(C)C)C(=O)N[C@H](C(=O)N[C@@H](CCCNC(=N)N)C(=O)N[C@@H](CCC(N)=O)C(=O)N[C@@H](CCCNC(=N)N)C(=O)N[C@@H](Cc1ccc(O)cc1)C(N)=O)[C@@H](C)O)C(C)C)[C@@H](C)O
B2: Compound 20 (peptide)
peptide: Isovaleryl-APAK([Ahx-γGlu-C18 diacid])PEEDASPEELQRYQVSLRHYYNWLTRQRY-NH2
SMILES: CC(C)CC(=O)N[C@@H](C)C(=O)N1CCC[C@H]1C(=O)N[C@@H](C)C(=O)N[C@@H](CCCCNC(=O)CCCCCNC(=O)CC[C@H](NC(=O)CCCCCCCCCCCCCCCCC(=O)O)C(=O)O)C(=O)N1CCC[C@H]1C(=O)N[C@@H](CCC(=O)O)C(=O)N[C@@H](CCC(=O)O)C(=O)N[C@@H](CC(=O)O)C(=O)N[C@@H](C)C(=O)N[C@@H](CO)C(=O)N1CCC[C@H]1C(=O)N[C@@H](CCC(=O)O)C(=O)N[C@@H](CCC(=O)O)C(=O)N[C@@H](CC(C)C)C(=O)N[C@@H](CCC(N)=O)C(=O)N[C@@H](CCCNC(=N)N)C(=O)N[C@@H](Cc1ccc(O)cc1)C(=O)N[C@@H](CCC(N)=O)C(=O)N[C@H](C(=O)N[C@@H](CO)C(=O)N[C@@H](CC(C)C)C(=O)N[C@@H](CCCNC(=N)N)C(=O)N[C@@H](Cc1c[nH]cn1)C(=O)N[C@@H](Cc1ccc(O)cc1)C(=O)N[C@@H](Cc1ccc(O)cc1)C(=O)N[C@@H](CC(N)=O)C(=O)N[C@@H](Cc1c[nH]c2ccccc12)C(=O)N[C@@H](CC(C)C)C(=O)N[C@H](C(=O)N[C@@H](CCCNC(=N)N)C(=O)N[C@@H](CCC(N)=O)C(=O)N[C@@H](CCCNC(=N)N)C(=O)N[C@@H](Cc1ccc(O)cc1)C(N)=O)[C@@H](C)O)C(C)C
B3: Compound 22 (peptide)
peptide: Isovaleryl-APEK([Ahx-γGlu-C18 diacid])PEEDPTPEELQRYYVSLRHYYNWLTRQRY-NH2
SMILES: CC(C)CC(=O)N[C@@H](C)C(=O)N1CCC[C@H]1C(=O)N[C@@H](CCC(=O)O)C(=O)N[C@@H](CCCCNC(=O)CCCCCNC(=O)CC[C@H](NC(=O)CCCCCCCCCCCCCCCCC(=O)O)C(=O)O)C(=O)N1CCC[C@H]1C(=O)N[C@@H](CCC(=O)O)C(=O)N[C@@H](CCC(=O)O)C(=O)N[C@@H](CC(=O)O)C(=O)N1CCC[C@H]1C(=O)N[C@H](C(=O)N1CCC[C@H]1C(=O)N[C@@H](CCC(=O)O)C(=O)N[C@@H](CCC(=O)O)C(=O)N[C@@H](CC(C)C)C(=O)N[C@@H](CCC(N)=O)C(=O)N[C@@H](CCCNC(=N)N)C(=O)N[C@@H](Cc1ccc(O)cc1)C(=O)N[C@@H](Cc1ccc(O)cc1)C(=O)N[C@H](C(=O)N[C@@H](CO)C(=O)N[C@@H](CC(C)C)C(=O)N[C@@H](CCCNC(=N)N)C(=O)N[C@@H](Cc1c[nH]cn1)C(=O)N[C@@H](Cc1ccc(O)cc1)C(=O)N[C@@H](Cc1ccc(O)cc1)C(=O)N[C@@H](CC(N)=O)C(=O)N[C@@H](Cc1c[nH]c2ccccc12)C(=O)N[C@@H](CC(C)C)C(=O)N[C@H](C(=O)N[C@@H](CCCNC(=N)N)C(=O)N[C@@H](CCC(N)=O)C(=O)N[C@@H](CCCNC(=N)N)C(=O)N[C@@H](Cc1ccc(O)cc1)C(N)=O)[C@@H](C)O)C(C)C)[C@@H](C)O
B4: Compound 17 (peptide)
peptide: Isovaleryl-APEK([Ahx-γGlu-C18 diacid])PEEDATPEEIQRYYPSLRHYYNWLTRQRY-NH2
SMILES: CC[C@H](C)[C@H](NC(=O)[C@H](CCC(=O)O)NC(=O)[C@H](CCC(=O)O)NC(=O)[C@@H]1CCCN1C(=O)[C@@H](NC(=O)[C@H](C)NC(=O)[C@H](CC(=O)O)NC(=O)[C@H](CCC(=O)O)NC(=O)[C@H](CCC(=O)O)NC(=O)[C@@H]1CCCN1C(=O)[C@H](CCCCNC(=O)CCCCCNC(=O)CC[C@H](NC(=O)CCCCCCCCCCCCCCCCC(=O)O)C(=O)O)NC(=O)[C@H](CCC(=O)O)NC(=O)[C@@H]1CCCN1C(=O)[C@H](C)NC(=O)CC(C)C)[C@@H](C)O)C(=O)N[C@@H](CCC(N)=O)C(=O)N[C@@H](CCCNC(=N)N)C(=O)N[C@@H](Cc1ccc(O)cc1)C(=O)N[C@@H](Cc1ccc(O)cc1)C(=O)N1CCC[C@H]1C(=O)N[C@@H](CO)C(=O)N[C@@H](CC(C)C)C(=O)N[C@@H](CCCNC(=N)N)C(=O)N[C@@H](Cc1c[nH]cn1)C(=O)N[C@@H](Cc1ccc(O)cc1)C(=O)N[C@@H](Cc1ccc(O)cc1)C(=O)N[C@@H](CC(N)=O)C(=O)N[C@@H](Cc1c[nH]c2ccccc12)C(=O)N[C@@H](CC(C)C)C(=O)N[C@H](C(=O)N[C@@H](CCCNC(=N)N)C(=O)N[C@@H](CCC(N)=O)C(=O)N[C@@H](CCCNC(=N)N)C(=O)N[C@@H](Cc1ccc(O)cc1)C(N)=O)[C@@H](C)O
B5: Compound 19 (peptide)
peptide: Isovaleryl-APEK([Ahx-γGlu-C18 diacid])PEEDATEEELQRYYVSLRHYYNWLTRQRY-NH2
SMILES: CC(C)CC(=O)N[C@@H](C)C(=O)N1CCC[C@H]1C(=O)N[C@@H](CCC(=O)O)C(=O)N[C@@H](CCCCNC(=O)CCCCCNC(=O)CC[C@H](NC(=O)CCCCCCCCCCCCCCCCC(=O)O)C(=O)O)C(=O)N1CCC[C@H]1C(=O)N[C@@H](CCC(=O)O)C(=O)N[C@@H](CCC(=O)O)C(=O)N[C@@H](CC(=O)O)C(=O)N[C@@H](C)C(=O)N[C@H](C(=O)N[C@@H](CCC(=O)O)C(=O)N[C@@H](CCC(=O)O)C(=O)N[C@@H](CCC(=O)O)C(=O)N[C@@H](CC(C)C)C(=O)N[C@@H](CCC(N)=O)C(=O)N[C@@H](CCCNC(=N)N)C(=O)N[C@@H](Cc1ccc(O)cc1)C(=O)N[C@@H](Cc1ccc(O)cc1)C(=O)N[C@H](C(=O)N[C@@H](CO)C(=O)N[C@@H](CC(C)C)C(=O)N[C@@H](CCCNC(=N)N)C(=O)N[C@@H](Cc1c[nH]cn1)C(=O)N[C@@H](Cc1ccc(O)cc1)C(=O)N[C@@H](Cc1ccc(O)cc1)C(=O)N[C@@H](CC(N)=O)C(=O)N[C@@H](Cc1c[nH]c2ccccc12)C(=O)N[C@@H](CC(C)C)C(=O)N[C@H](C(=O)N[C@@H](CCCNC(=N)N)C(=O)N[C@@H](CCC(N)=O)C(=O)N[C@@H](CCCNC(=N)N)C(=O)N[C@@H](Cc1ccc(O)cc1)C(N)=O)[C@@H](C)O)C(C)C)[C@@H](C)O
B6: Compound 13 (peptide)
peptide: Isovaleryl-APEK([Ahx-γGlu-C18 diacid])PEADASPEETQRYYVSLRHYYNWLTRQRY-NH2
SMILES: CC(C)CC(=O)N[C@@H](C)C(=O)N1CCC[C@H]1C(=O)N[C@@H](CCC(=O)O)C(=O)N[C@@H](CCCCNC(=O)CCCCCNC(=O)CC[C@H](NC(=O)CCCCCCCCCCCCCCCCC(=O)O)C(=O)O)C(=O)N1CCC[C@H]1C(=O)N[C@@H](CCC(=O)O)C(=O)N[C@@H](C)C(=O)N[C@@H](CC(=O)O)C(=O)N[C@@H](C)C(=O)N[C@@H](CO)C(=O)N1CCC[C@H]1C(=O)N[C@@H](CCC(=O)O)C(=O)N[C@@H](CCC(=O)O)C(=O)N[C@H](C(=O)N[C@@H](CCC(N)=O)C(=O)N[C@@H](CCCNC(=N)N)C(=O)N[C@@H](Cc1ccc(O)cc1)C(=O)N[C@@H](Cc1ccc(O)cc1)C(=O)N[C@H](C(=O)N[C@@H](CO)C(=O)N[C@@H](CC(C)C)C(=O)N[C@@H](CCCNC(=N)N)C(=O)N[C@@H](Cc1c[nH]cn1)C(=O)N[C@@H](Cc1ccc(O)cc1)C(=O)N[C@@H](Cc1ccc(O)cc1)C(=O)N[C@@H](CC(N)=O)C(=O)N[C@@H](Cc1c[nH]c2ccccc12)C(=O)N[C@@H](CC(C)C)C(=O)N[C@H](C(=O)N[C@@H](CCCNC(=N)N)C(=O)N[C@@H](CCC(N)=O)C(=O)N[C@@H](CCCNC(=N)N)C(=O)N[C@@H](Cc1ccc(O)cc1)C(N)=O)[C@@H](C)O)C(C)C)[C@@H](C)O

For orientation: Ki means a measure of affinity in units of concentration, obtained from inhibition or displacement.

*1 amine or outer side, *2 acyl side, *3 side chain or, on linkers, in order; H or OH if unused. Side-chain parts run from the residue outwards. The star is where a group is joined. C18 diacid = O=C(O)CCCCCCCCCCCCCCCCC(=O)*; γGlu = O=C(O)[C@H](CCC(=O)[*:2])N[*:1]; Isovaleryl = CC(C)CC(=O)*; Ahx = NCCCCCC(=O)O

For the test, the target named is T1, human NPY2 receptor. As to the kind of experiment: RLB: displacement of 125I-PYY(1-36) from hNPY2R membranes. On the procedure:
The filtration RLB assay was carried out in 96-well plates in a final volume of 100 μl per well. Freeze-dried test peptides were dissolved in 100% dimethyl sulfoxide (DMSO) to stock solutions of 1 mM and serial dilutions were performed in assay buffer (50 mM HEPES, 5 mM MgCl₂, 1 mM CaCl₂), pH 7.4) containing 0.2% ovalbumin. […] Next, 80 μL membranes (HTS066M, ChemiSCREEN™ Human Neuropeptide Y2 Receptor Membrane Preparation, CHEMICON) were added to each well to give a final protein concentration of 0.5 μg/well. The plates were sealed and incubated at room temperature for 2 hours in a plate shaker set at 400 rpm. The incubation was stopped by vacuum filtration onto 0.5% polyethylene amine (PEI) presoaked GF/C filters using a 96-well FilterMate™ harvester (Perkin Elmer) followed by four washes with 300 μl/well ice-cold wash buffer (50 mM HEPES, 500 mM NaCl, pH7.4). Filter plates were then dried for 60 min at room temperature and the bottom of the plates was sealed with backing tape UniFilter-96. Finally, 50 μl/well scintillation counter cocktail (Microscint20, Packard) was added and the radioactivity was counted in the Packard TopCount NXT scintillation counter. IC₅₀ values (the half maximal inhibitory concentration of the agonist) were calculated by nonlinear regression analysis of sigmoidal dose-response curves.
In the case of B1, the affinity corresponds to a Ki of 3.32 nM.

B2 gave a Ki of 2.41 nM.

The molecule B3 had a Ki of 4.98 nM.

B4: the affinity corresponds to a Ki of 24.6 nM.

For the molecule B5, the affinity corresponds to a Ki of 9.63 nM. This Ki is about 2.6-fold lower than that of the molecule before.

Regarding B6, the inhibitory constant (Ki) was 1.53 nM.

These data come from patent US20260015399A1 (Boehringer Ingelheim, published 2026).
